Data published in patent US20170009278A1 (NAVINCI DIAGNOSTICS, published 2017).

Molecular target: T1, β catenin (UniProt P35222 2-781)
T1 construct: Detected with antibody Sc7199 (Santa-Cruz)
T1 sequence (looked up): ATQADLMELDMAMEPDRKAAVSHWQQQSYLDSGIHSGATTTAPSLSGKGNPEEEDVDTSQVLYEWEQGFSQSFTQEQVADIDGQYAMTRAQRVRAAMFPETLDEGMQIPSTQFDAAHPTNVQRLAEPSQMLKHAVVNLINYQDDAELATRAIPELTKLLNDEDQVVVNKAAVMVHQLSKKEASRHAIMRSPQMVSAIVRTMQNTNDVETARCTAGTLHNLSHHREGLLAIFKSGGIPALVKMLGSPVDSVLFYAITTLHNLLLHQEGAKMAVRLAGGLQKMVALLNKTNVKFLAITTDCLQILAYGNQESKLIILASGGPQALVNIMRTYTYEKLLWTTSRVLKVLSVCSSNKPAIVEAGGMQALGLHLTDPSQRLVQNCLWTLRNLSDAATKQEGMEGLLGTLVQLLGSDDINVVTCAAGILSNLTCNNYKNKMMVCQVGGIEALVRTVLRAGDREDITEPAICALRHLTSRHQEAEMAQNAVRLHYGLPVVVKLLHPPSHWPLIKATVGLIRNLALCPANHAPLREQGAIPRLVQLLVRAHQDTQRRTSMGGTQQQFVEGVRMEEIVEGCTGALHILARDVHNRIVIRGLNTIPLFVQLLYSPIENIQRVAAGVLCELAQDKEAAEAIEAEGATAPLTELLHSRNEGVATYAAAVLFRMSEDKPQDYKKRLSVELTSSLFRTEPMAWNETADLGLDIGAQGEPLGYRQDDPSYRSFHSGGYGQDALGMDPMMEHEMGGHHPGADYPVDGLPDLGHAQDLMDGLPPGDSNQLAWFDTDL
Test: in situ prox-HCR and in situ PLA on DLD1 cells and colon tissue
Method: For in situ PLA experiments the DuoLink kit (Olink Bioscience) was used according to manufacturer recommendations. Briefly DLD1 cells were rehydrated and permeabilized as described for prox-HCR. […] Cells were washed with DuoLink Wash buffer A two time for 5 min and incubated with proximity probes (PLUS and MINUS, Olink Bioscience) in antibody diluent (Olink Bioscience) for 1 h at 37° C. After a new round of washing steps ligation mix was applied to the cells and incubated for 30 min at 37° C. Additional washing was followed by RCA and fluorescent detection of the rolling circle products. Cells were counterstained with Hoechst and mounted as described above.
Fresh frozen healthy colon tissue was fixed using 3.7% formaldehyde solution at RT for 15 min. Slides were washed with PBS twice and then blocked using Duolink blocking reagent for 60 min at 37° C. […] The next day the slides were washed with PBS 3×2 min and blocked again for 30 min. The slides were incubated with proximity-probes directed against mouse and rabbit IgG for 1 h at 37° C. in HCR buffer. After two more washes with HCR buffer the slides were incubated with activator oligonucleotides for 30 min at 37° C. Slides were washed again twice with HCR buffer and slides were incubated with 20 nM HCR hairpins in HCR buffer for 1 h at 37° C. […]

B1: E-cadherin (receptor, UniProt P12830 155-882, looked up)
chain: DWVIPPISCPENEKGPFPKNLVQIKSNKDKEGKVFYSITGQGADTPPVGVFIIERETGWLKVTEPLDRERIATYTLFSHAVSSNGNAVEDPMEILITVTDQNDNKPEFTQEVFKGSVMEGALPGTSVMEVTATDADDDVNTYNAAIAYTILSQDPELPDKNMFTINRNTGVISVVTTGLDRESFPTYTLVVQAADLQGEGLSTTATAVITVTDTNDNPPIFNPTTYKGQVPENEANVVITTLKVTDADAPNTPAWEAVYTILNDDGGQFVVTTNPVNNDGILKTAKGLDFEAKQQYILHVAVTNVVPFEVSLTTSTATVTVDVLDVNEAPIFVPPEKRVEVSEDFGVGQEITSYTAQEPDTFMEQKITYRIWRDTANWLEINPDTGAISTRAELDREDFEHVKNSTYTALIIATDNGSPVATGTGTLLLILSDVNDNAPIPEPRTIFFCERNPKPQVINIIDADLPPNTSPFTAELTHGASANWTIQYNDPTQESIILKPKMALEVGDYKINLKLMDNQNKDQVTTLEVSVCDCEGAAGVCRKAQPVEAGLQIPAILGILGGILALLILILLLLLFLRRRAVVKEPLLPPEDDTRDNVYYYDEEGGGEEDQDFDLSQLHRGLDARPEVTRNDVAPTLMSVPRYLPRPANPDEIGNFIDENLKAADTDPTAPPYDSLLVFDYEGSGSEAASLSSLNSSESDKDQDYDYLNEWGNRFKKLADMYGGGEDD
notes: whole, on cells; Detected with antibody 610182 (BD Biosciences)
- binding result: binds
